From publication PMC10530723, “The Conserved Chromatin Remodeler SMARCAD1 Interacts with TFIIIC and Architectural Proteins in Human and Mouse” (Genes, 2023) come the findings set out here.

The experiment has as its target T1, His-SMARCAD1 (human, recombinant) (human, UniProt Q9H4L7 1-1026).
T1 construct: also called hSMARCAD1; His-tagged human SMARCAD1; source: insect cells (baculovirus), purified via a His-tag
T1 sequence (looked up): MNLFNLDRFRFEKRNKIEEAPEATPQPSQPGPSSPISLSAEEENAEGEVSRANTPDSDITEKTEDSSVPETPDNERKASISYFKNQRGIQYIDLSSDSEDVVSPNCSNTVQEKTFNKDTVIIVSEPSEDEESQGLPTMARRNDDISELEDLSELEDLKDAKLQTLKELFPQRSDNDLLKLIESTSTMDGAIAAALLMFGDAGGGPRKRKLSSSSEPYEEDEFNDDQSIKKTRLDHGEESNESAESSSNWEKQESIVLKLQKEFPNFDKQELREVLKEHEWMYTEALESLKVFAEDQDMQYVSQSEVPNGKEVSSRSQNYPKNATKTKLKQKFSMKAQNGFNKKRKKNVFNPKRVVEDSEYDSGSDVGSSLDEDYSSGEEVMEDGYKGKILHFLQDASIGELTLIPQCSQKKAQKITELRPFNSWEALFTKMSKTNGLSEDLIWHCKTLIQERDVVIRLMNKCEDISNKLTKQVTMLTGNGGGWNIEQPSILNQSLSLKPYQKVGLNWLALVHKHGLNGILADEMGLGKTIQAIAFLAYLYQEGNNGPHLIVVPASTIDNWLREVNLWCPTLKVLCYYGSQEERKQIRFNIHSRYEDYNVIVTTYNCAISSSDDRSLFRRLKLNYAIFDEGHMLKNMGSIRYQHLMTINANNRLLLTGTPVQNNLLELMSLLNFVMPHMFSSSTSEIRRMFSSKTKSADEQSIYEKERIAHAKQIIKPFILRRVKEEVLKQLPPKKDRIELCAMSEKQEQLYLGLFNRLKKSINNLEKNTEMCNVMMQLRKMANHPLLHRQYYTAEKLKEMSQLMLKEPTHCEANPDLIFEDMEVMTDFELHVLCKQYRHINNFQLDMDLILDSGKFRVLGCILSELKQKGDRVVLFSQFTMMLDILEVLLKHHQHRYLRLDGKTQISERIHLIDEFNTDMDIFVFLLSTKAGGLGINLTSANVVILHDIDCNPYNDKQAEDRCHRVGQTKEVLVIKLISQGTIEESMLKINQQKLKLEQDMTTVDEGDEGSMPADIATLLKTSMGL
The experiment can be described thus: pull-down; GST fusion proteins on glutathione Sepharose 4B beads (13 ug protein), 1 ug His-Smarcad1 in solution; 100 mM NaCl, 20 mM Hepes, 5% glycerol, 0.1% Triton; 1.5 h at 4 °C; bound protein detected by Western blot with anti-SMARCAD1. To be noted: both partners purified. Background: In western blotting, separated proteins are transferred to a membrane and probed.

B1: GST-TFIIIC102 (human, full-length) (natural protein, UniProt Q9Y5Q9 1-886, looked up)
chain: MSGFSPELIDYLEGKISFEEFERRREERKTREKKSLQEKGKLSAEENPDDSEVPSSSGINSTKSQDKDVNEGETSDGVRKSVHKVFASMLGENEDDEEEEEEEEEEEEEEETPEQPTAGDVFVLEMVLNRETKKMMKEKRPRSKLPRALRGLMGEANIRFARGEREEAILMCMEIIRQAPLAYEPFSTLAMIYEDQGDMEKSLQFELIAAHLNPSDTEEWVRLAEMSLEQDNIKQAIFCYTKALKYEPTNVRYLWERSSLYEQMGDHKMAMDGYRRILNLLSPSDGERFMQLARDMAKSYYEANDVTSAINIIDEAFSKHQGLVSMEDVNIAAELYISNKQYDKALEIITDFSGIVLEKKTSEEGTSEENKAPENVTCTIPDGVPIDITVKLMVCLVHLNILEPLNPLLTTLVEQNPEDMGDLYLDVAEAFLDVGEYNSALPLLSALVCSERYNLAVVWLRHAECLKALGYMERAAESYGKVVDLAPLHLDARISLSTLQQQLGQPEKALEALEPMYDPDTLAQDANAAQQELKLLLHRSTLLFSQGKMYGYVDTLLTMLAMLLKVAMNRAQVCLISSSKSGERHLYLIKVSRDKISDSNDQESANCDAKAIFAVLTSVLTKDDWWNLLLKAIYSLCDLSRFQEAELLVDSSLEYYSFYDDRQKRKELEYFGLSAAILDKNFRKAYNYIRIMVMENVNKPQLWNIFNQVTMHSQDVRHHRFCLRLMLKNPENHALCVLNGHNAFVSGSFKHALGQYVQAFRTHPDEPLYSFCIGLTFIHMASQKYVLRRHALIVQGFSFLNRYLSLRGPCQESFYNLGRGLHQLGLIHLAIHYYQKALELPPLVVEGIELDQLDLRRDIAYNLSLIYQSSGNTGMAQTLLYTYCSI
notes: TFIIIC102, human, full-length, cDNA from OriGene (RC208122) cloned into pGEX-6P-1 (BamH1/Not1); pGEX-6P-1 places GST at the N-terminus (surmised from the vector; the reverse primer carries the stop codon); also called hTFIIIC102; human TFIIIC102 GST-fusion protein; source: E. coli, purified (glutathione Sepharose 4B beads)
Consider B1, for which the binding result was “binds”.
